Source: article PMC11649783, “Structural basis of 3′-tRNA maturation by the human mitochondrial RNase Z complex” (The EMBO Journal, 2024)

Molecular target: T1, SDR5C1 (human, UniProt Q99714 1-261)
T1 construct: expression construct as previously described (Reinhard et al, 2017); The subcomplex was purified by Ni2+ IMAC and treated with TEV protease; also called 4xSDR5C1
T1 sequence: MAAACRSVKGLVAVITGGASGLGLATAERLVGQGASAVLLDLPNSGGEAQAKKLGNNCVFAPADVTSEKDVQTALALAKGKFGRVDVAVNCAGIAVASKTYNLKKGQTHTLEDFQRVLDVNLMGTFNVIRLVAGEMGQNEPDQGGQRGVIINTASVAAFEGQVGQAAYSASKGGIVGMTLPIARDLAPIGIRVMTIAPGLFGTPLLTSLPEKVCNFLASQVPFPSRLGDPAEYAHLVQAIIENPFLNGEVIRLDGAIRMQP
Assay: cryo-EM structure; RNase Z-HS product complex: assembled at 4 °C from 10 μM TRMT10C/SDR5C1, 20 μM ELAC2 and 20 μM mt-tRNA^His-Ser(AGY) precursor with 200 μM SAM in buffer D (20 mM HEPES 7.5, 50 mM NaCl, 1 mM MgCl2, 1 mM DTT), S200 size exclusion, incubated to complete turnover; 2.9 Å
Conditions: both partners purified

stoichiometry N: 2 mt-tRNA/TRMT10C per SDR5C1 tetramer
B1: TRMT10C (enzyme, human, UniProt Q7L0Y3 40-403, looked up)
chain: MSSKIPAVTYPKNESTPPSEELELDKWKTTMKSSVQEECVSTISSSKDEDPLAATREFIEMWRLLGREVPEHITEEELKTLMECVSNTAKKKYLKYLYTKEKVKKARQIKKEMKAAAREEAKNIKLLETTEEDKQKNFLFLRLWDRNMDIAMGWKGAQAMQFGQPLVFDMAYENYMKRKELQNTVSQLLESEGWNRRNVDPFHIYFCNLKIDGALHRELVKRYQEKWDKLLLTSTEKSHVDLFPKDSIIYLTADSPNVMTTFRHDKVYVIGSFVDKSMQPGTSLAKAKRLNLATECLPLDKYLQWEIGNKNLTLDQMIRILLCLKNNGNWQEALQFVPKRKHTGFLEISQHSQEFINRLKKAKT
notes: TRMT10C, human; expression construct as previously described (Reinhard et al, 2017); The subcomplex was purified by Ni2+ IMAC and treated with TEV protease
